# Test results as given in US20100209938A1.
# Tests used:
# [1] = molecular target: α4YFP nAChR subunit (mouse) (UniProt O70174); test: pixel-by-pixel sensitized emission FRET (NFRET), whole-cell ROI, N2a cells
# [2] = molecular target: α4YFP nAChR subunit (mouse) (UniProt O70174); test: pixel-by-pixel sensitized emission FRET, Gaussian fit of the NFRET distribution, N2a cells
# β2CFP nAChR subunit, sequence (Q9ERK7 26-501): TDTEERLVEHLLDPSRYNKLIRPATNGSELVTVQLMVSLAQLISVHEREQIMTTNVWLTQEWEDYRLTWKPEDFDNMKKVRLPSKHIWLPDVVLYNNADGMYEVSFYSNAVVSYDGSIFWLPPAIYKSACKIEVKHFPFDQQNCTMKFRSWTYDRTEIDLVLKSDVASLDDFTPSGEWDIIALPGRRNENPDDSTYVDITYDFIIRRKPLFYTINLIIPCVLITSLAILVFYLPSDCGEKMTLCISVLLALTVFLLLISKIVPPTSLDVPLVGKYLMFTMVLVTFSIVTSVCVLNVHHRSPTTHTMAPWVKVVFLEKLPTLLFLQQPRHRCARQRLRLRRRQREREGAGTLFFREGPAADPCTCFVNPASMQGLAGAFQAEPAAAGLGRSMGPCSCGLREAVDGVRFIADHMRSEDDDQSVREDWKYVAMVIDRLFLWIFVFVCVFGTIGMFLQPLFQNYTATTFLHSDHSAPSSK
# α4YFP nAChR subunit (mouse), sequence (O70174 31-629): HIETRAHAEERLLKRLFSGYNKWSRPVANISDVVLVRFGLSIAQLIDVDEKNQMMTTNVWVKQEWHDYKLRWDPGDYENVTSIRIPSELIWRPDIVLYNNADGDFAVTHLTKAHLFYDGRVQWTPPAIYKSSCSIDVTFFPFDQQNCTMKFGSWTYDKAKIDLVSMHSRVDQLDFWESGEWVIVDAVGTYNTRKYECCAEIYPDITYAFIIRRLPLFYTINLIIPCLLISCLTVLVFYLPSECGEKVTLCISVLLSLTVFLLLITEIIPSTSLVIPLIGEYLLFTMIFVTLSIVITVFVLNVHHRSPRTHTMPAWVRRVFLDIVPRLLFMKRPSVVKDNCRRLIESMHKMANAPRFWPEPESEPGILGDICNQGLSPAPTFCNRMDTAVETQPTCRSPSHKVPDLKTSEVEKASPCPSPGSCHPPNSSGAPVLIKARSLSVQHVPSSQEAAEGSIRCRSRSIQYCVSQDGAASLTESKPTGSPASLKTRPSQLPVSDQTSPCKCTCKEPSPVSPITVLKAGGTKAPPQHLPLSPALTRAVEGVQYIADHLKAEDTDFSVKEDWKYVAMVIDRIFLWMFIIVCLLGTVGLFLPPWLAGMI
substance,measurement,setting,value
β2CFP nAChR subunit (from UniProt Q9ERK7 26-501) (receptor),mean NFRET for all pixels,[1],0.2
same,mean NFRET of first Gaussian component,[2],0.19
same,mean NFRET of second Gaussian component,[2],0.28
